Assay results: patent publication US20220259322A1 (WASHINGTON UNIVERSITY, published 2022)
Blank lines part the entries; values can stand above or below the binder they belong to.

Assays:
peptide 90 [1] = target: T1, peptide 90; experiment: peptide dot blot on nitrocellulose, chemiluminescence
T1 construct: 12-mer from the C-terminus of GRP78
T1 peptide: PPTGEEDTAEKD
Description: Seven peptides were synthesized from the c-terminus of GRP78. Each peptide was a 12-mer with 5 amino acid overlap. Each of the peptide was coated in duplicate on nitrocellulose membrane and incubated with 7A9 antibody. After washing, the blot was developed using chemiluminescence. The arrows indicate positive spot.
(§1) Seven peptides were synthesized from the c-terminus of GRP78. Each peptide was a 12-mer with 5 amino acid overlap. The sequences of the peptides are shown above. Each of the peptide was coated in duplicate on nitrocellulose membrane and incubated with 7A9 antibody. After washing, the blot was developed using chemiluminescence. The arrows indicate positive spot, FIG. 4. 7A9 epitope: SEQ ID NO: 70 ([…] . . . EDTAE). FIG. 5A-5B Epitope mapping of 6F8 antibody was performed using Biacore T200. 6F8 was immobilized on the CM5 sensor chip and peptides 86-90 (overlapping peptides in the immunogen region of 6F8) were passed as analyte. Relative binding response (response on blank channel subtracted from the 6F8 immobilized channel) of each peptide to 6F8 was analyzed using the BIAevaluation software. Cut-off for nonbinding peptides is 0 RU. Three-dimensional model of GRP78 protein indicating the epitope sequence on the protein in magenta color. The figure was generated using Pymol software.

peptide 89 [2] = target: T2, peptide 89; experiment: Biacore T200, 7A9 immobilized on CM5 chip, peptide as analyte, blank-subtracted relative response
T2 construct: 12-mer from the C-terminus of GRP78
T2 peptide: LYGSAGPPPTGE
Description: (§2) FIG. 6A depicts a graph of the relative response binding of 7A9. Epitope mapping was performed using Biacore T200. 7A9 was immobilized on the CM5 sensor chip and peptides 86-90 (overlapping peptides in the immunogen region of 7A9) were passed as analyte. Relative binding response (response on blank channel subtracted from the 7A9 immobilized channel) of each peptide to 7A9 was analyzed using the BIAevaluation software. Cut-off for nonbinding peptides is 0 RU. […] The figure was generated using Pymol software (SEQ ID NO: 70).
(§3) FIG. 6A-6B Epitope mapping of 7A9 antibody was performed using Biacore T200. 7A9 was immobilized on the CM5 sensor chip and peptides 86-90 (overlapping peptides in the immunogen region of 7A9) were passed as analyte. Relative binding response (response on blank channel subtracted from the 7A9 immobilized channel) of each peptide to 7A9 was analyzed using the BIAevaluation software. Cut-off for nonbinding peptides is 0 RU. Three-dimensional model of GRP78 protein indicating the epitope sequence on the protein in red color. The figure was generated using Pymol software.

peptide 86 [3] = target: T3, peptide 86; experiment: as above
T3 construct: 12-mer from the C-terminus of GRP78
T3 peptide: IEDFKAKKKELE
Description: as §2, §3

peptide 87 [4] = target: T4, peptide 87; experiment: as above
T4 construct: 12-mer from the C-terminus of GRP78
T4 peptide: KKELEEIVQPII
Description: as §2, §3

[5] = target: T5, 78-kDa glucose-regulated protein (GRP78) (UniProt P11021 19-654); experiment: flow cytometry, H460 cells, gMFI, 4PL fit; x axis of panel B is printed 'Log10 [6F8] nM' although title and legend say 7A9
T5 construct: 'peptides 86-90' in Biacore; also called BiP; HSP5a
Description: FIG. 11A-11B show flow cytometry for cell surface binding of 7A9 antibody to H460 cells. FIG. 11A is the flow cytometry assay for cell surface binding of 7A9 antibody to H460 cells. Binding conditions: 0.1×10⁶ cells incubated with 3-fold dilutions of antibody started at 1.0 μM. Cells were washed 2× with FACS buffer. Stained with secondary antibody. Washed twice and analyzed in FACS buffer by flow cytometer FACS Canto II (BD). […]

[6] = target: T5, 78-kDa glucose-regulated protein (GRP78); experiment: flow cytometry, H460 cells, gMFI, one site-specific binding fit; no unit beside the number, x axis in nM; all points lie at gMFI about 1000-1400, so the fit rests on no point of the rising part
Description: FIG. 11A-11B show flow cytometry for cell surface binding of 7A9 antibody to H460 cells. FIG. 11A is the flow cytometry assay for cell surface binding of 7A9 antibody to H460 cells. Binding conditions: 0.1×10⁶ cells incubated with 3-fold dilutions of antibody started at 1.0 μM. Cells were washed 2× with FACS buffer. Stained with secondary antibody. Washed twice and analyzed in FACS buffer by flow cytometer FACS Canto II (BD). Geometric mean fluorescence intensity was fitted using the One site-specific binding in Graphpad Prism software.

C-terminal GRP78 peptide = target: T6, C-terminal GRP78 peptide; experiment: ELISA on C-terminal GRP78 peptide
T6 construct: name from the legend, the sheet prints only 'GRP78 Hybridoma ELISA'

[7] = target: T5, 78-kDa glucose-regulated protein (GRP78); experiment: flow cytometry, A549 cells, gMFI minus secondary only, 4PL fit
Description: (§4) FIG. 7A-7B show graphs of flowcytometry data for the cell surface binding of GRP78 antibodies. […] Binding conditions: 0.1×10⁶ cells incubated with 3-fold dilutions of antibody started at 2.22 μM. Cells were washed 2× with FACS buffer. Stained with secondary antibody. Washed twice and analyzed in FACS buffer by flow cytometer FACS Canto II (BD). Geometric mean fluorescence intensity was fitted using the “One site-specific binding” in Graphpad Prism software.
(§5) A Flow cytometry assay for cell surface binding of 6F8 antibody to A549 cells was done (FIG. 7A-7B). Binding conditions: 0.1×10⁶ cells incubated with 3-fold dilutions of antibody started at 2.22 μM. Cells were washed 2× with FACS buffer. Stained with secondary antibody. Washed twice and analyzed in FACS buffer by flow cytometer FACS Canto II (BD). Geometric mean fluorescence intensity was fitted using the “One site-specific binding” in Graphpad Prism software. Graph showing the same data as in A fitted using the “Sigmoidal, 4PL, X is log(concentration)” in Graphpad Prism software (FIG. 7B).

[8] = target: T5, 78-kDa glucose-regulated protein (GRP78); experiment: flow cytometry, H460 cells, gMFI minus secondary only, 4PL fit
Description: FIG. 9A-9B are graphs showing the cell surface binding of 6F8 to H460 cells. […] Binding conditions: 0.1×10^6 cells incubated with 3-fold dilutions of antibody started at 0.7 μM. Cells were washed 2× with FACS buffer. Stained with secondary antibody. Washed twice and analyzed in FACS buffer by flow cytometer FACS Canto II (BD). […]

peptide 89 [9] = target: T2, peptide 89; experiment: Biacore T200, 6F8 immobilized on CM5 chip, peptide as analyte, blank-subtracted relative response
Description: as §2, with “5A-5B show the epitope mapping of 6F8 antibody. FIG. 5A” for “6A”, “binding.” for “binding of 7A9.”, “6F8” for “7A9”, “6F8)” for “7A9)”, “71).” for “70).”
as §1

peptide 90 [10] = target: T1, peptide 90; experiment: as above
Description: as §2, with “5A-5B show the epitope mapping of 6F8 antibody. FIG. 5A” for “6A”, “binding.” for “binding of 7A9.”, “6F8” for “7A9”, “6F8)” for “7A9)”, “71).” for “70).”
as §1

peptide 86 [11] = target: T3, peptide 86; experiment: as above
Description: as §2, with “5A-5B show the epitope mapping of 6F8 antibody. FIG. 5A” for “6A”, “binding.” for “binding of 7A9.”, “6F8” for “7A9”, “6F8)” for “7A9)”, “71).” for “70).”
as §1

peptide 87 [12] = target: T4, peptide 87; experiment: as above
Description: as §2, with “5A-5B show the epitope mapping of 6F8 antibody. FIG. 5A” for “6A”, “binding.” for “binding of 7A9.”, “6F8” for “7A9”, “6F8)” for “7A9)”, “71).” for “70).”
as §1

peptide 88 = target: T7, peptide 88; experiment: as above
T7 construct: 12-mer from the C-terminus of GRP78
T7 peptide: VQPIISKLYGSA
Description: as §2, with “5A-5B show the epitope mapping of 6F8 antibody. FIG. 5A” for “6A”, “binding.” for “binding of 7A9.”, “6F8” for “7A9”, “6F8)” for “7A9)”, “71).” for “70).”
as §1

[13] = target: T5, 78-kDa glucose-regulated protein (GRP78); experiment: flow cytometry, A549 cells, gMFI minus secondary only, one site-specific binding fit; no unit beside the number, x axis in nM
Description: as §4, §5

[14] = target: T5, 78-kDa glucose-regulated protein (GRP78); experiment: flow cytometry, H460 cells, gMFI minus secondary only, one site-specific binding fit; no unit beside the number, x axis in nM
Description: FIG. 9A-9B are graphs showing the cell surface binding of 6F8 to H460 cells. […] Binding conditions: 0.1×10^6 cells incubated with 3-fold dilutions of antibody started at 0.7 μM. Cells were washed 2× with FACS buffer. Stained with secondary antibody. Washed twice and analyzed in FACS buffer by flow cytometer FACS Canto II (BD). Geometric mean fluorescence intensity was fitted using the One site-specific binding in Graphpad Prism software.

T5 sequence (P11021 19-654 limits assumed): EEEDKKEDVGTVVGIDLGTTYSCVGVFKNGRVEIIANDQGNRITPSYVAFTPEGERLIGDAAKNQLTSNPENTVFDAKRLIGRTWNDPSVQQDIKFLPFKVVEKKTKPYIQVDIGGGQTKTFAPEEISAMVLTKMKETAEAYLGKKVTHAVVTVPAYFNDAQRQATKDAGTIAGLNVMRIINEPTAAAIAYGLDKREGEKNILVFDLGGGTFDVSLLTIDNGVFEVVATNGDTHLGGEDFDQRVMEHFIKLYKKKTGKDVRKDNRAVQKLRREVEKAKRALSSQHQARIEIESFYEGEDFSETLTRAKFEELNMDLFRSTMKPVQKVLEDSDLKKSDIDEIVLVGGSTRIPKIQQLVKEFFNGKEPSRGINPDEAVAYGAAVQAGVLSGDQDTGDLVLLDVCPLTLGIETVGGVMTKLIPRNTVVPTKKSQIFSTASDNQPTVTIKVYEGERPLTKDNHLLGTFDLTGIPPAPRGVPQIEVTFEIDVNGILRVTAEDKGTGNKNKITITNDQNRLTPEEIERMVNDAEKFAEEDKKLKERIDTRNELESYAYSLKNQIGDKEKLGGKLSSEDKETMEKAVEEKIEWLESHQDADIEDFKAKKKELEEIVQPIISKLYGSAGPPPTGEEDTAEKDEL
T6 sequence (P11021 other isoform, or with tags, fused parts or gaps): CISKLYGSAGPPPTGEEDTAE

binding result (peptide 90 [1]): binds
binding result (peptide 89 [2]): no binding
binding result (peptide 86 [3]): no binding
binding result (peptide 87 [4]): no binding
EC50 (read off the curve) [5]: ~40 nM
Kd [6]: 0.108 nM
B1: 7A9 anti-GRP78 mouse monoclonal antibody (antibody, V domains shown)
VH: EVQLVETGGGLVQPKGSLKLSCAVSGITFNINAMNWVRQAPGKGLEWVARIRSKSNNYATYYADSVKDRFTISRDDSQSMLYLQMNNLKTEDTAMYYCVRDITRAGYFDVWGAGTTVTVSS
VL: QIVLTQSPAIMSASPGEKVTITCSASSSVIYMHWFQQKPGTSPKLWIYSTSNLASGVPARFSGSGSGTSYSLTISRMEAEDAATYYCQQRSSYPLTFGAGTKLELK

EC50 (read off the curve) (C-terminal GRP78 peptide): ~1000 nM
EC50 (read off the curve) [7]: ~50 nM
EC50 (read off the curve) [8]: ~100 nM
binding result (peptide 89 [9]): no binding
binding result (peptide 90 [10]): binds
binding result (peptide 86 [11]): no binding
binding result (peptide 87 [12]): no binding
binding result (peptide 88): no binding
Kd [13]: 16.4 nM
Kd [14]: 35.8 nM
B2: 6F8 anti-GRP78 mouse monoclonal antibody (antibody, V domains shown)
VH: EVQLVESGGGLVRPKGSLKLSCAASGFTLNTSAMNWVRQVPGKGLEWVGRIRSKNYNYATYYADSVKDRFTIFRDDSQNMLYLQMNNLKTEDTAMYYCVRPPGFAYWGQGTLVTVSA
VL: DIQMTQSPSSLSASLGERVSLTCRTSQEISGHLSWLQQKPDGTIKRLIYAASSLDSGVPKRFSGSRSGSDYSLTISSLESEDFADYYCLQYSSYPYTFGGGTKLEIK
